Experimental data taken from the RNAGym collection of RNA variant scans (doi:10.1073/pnas.2313332121).

B1: TPR t1 (parent)
chain: GACCAAUCUGCCCUCAGAGCUCGAGAACAUCUUCGGAUGCAGAGGAGGCAGGCUUCGGUGGCGCGAUAGCGCCAACGUCCUCAACCUCCAAUGCAUCCCACCACAUGAUGAUGCCUGAAGAGCCUUGGUUUUUUG

Variants of: B1
Test: polymerase ribozyme fitness, log enrichment relative to wild type (log ratio); higher = more active; in vitro selection for triplet polymerase activity
Procedure, shortened: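 Fitness measures genotype enrichment against wild-type enrichment on a logarithmic scale, with inverse-variance-weighted averaging of replicates. The logarithm is base 2, and genotypes were kept only with ≥10 input reads and ≥1 read per output in Illumina sequencing. The sequenced libraries came from one triplicate in vitro selection round, including frozen incubation at −7 °C, of PCR-built, transcribed mutant libraries of each subunit of a heterodimeric triplet polymerase ribozyme.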

In order of falling “polymerase ribozyme fitness (log ratio)” value:
1. A26G G48A C49G C73U A121U  -0.344
2. A26U U54C C86G A121U  -0.876
3. A26U A74G A121G  -1.18
4. A27C A29U C56U U106A G122A C123G  -1.35
5. A27C G57U C124G  -1.48
6. A24G G71U  -1.76
7. A24G G71U U106A  -2.23
8. A24G G47A G77U C86U  -2.29
9. A26G A111U  -2.41
10. A26G G110U  -2.66
11. A26U G71A C94U C123G U132C  -2.78
12. A26U A37C C72G G77A C124G  -2.81
13. A26G C73A A100U  -2.85
14. A27C C56U  -2.85
15. A26G G44U U55G C88U  -3.03
16. A26U A118C C123U  -3.12
17. A26U C56U  -3.38
18. A26G G63U  -3.45
19. A27C C62U  -3.48
20. A26U G113A  -3.51
21. A26U G48C  -3.53
22. G25U A26G A46U  -3.61
23. A24G G48U G110A U132A  -3.72
24. G25U G120C  -3.76
25. A26U A46U G61A  -3.77
26. A24G G36C C49A G71U  -3.84
27. A26U G61U C79U G93C G120C  -3.87
28. A24G G71U C86G  -3.88
29. G25U G120A  -3.94
30. A24G U54C C62G  -3.96
31. A26U G52U  -4.03
32. A26U C56A  -4.03
33. A27C G39A A41G  -4.08
34. A26U G135U  -4.2
35. A27C G45C  -4.29
36. A26U A41C A46U G61A C101U  -4.43
37. A27C C62G  -4.48
38. A27C G57A C123A  -4.55
39. A26U A46U  -4.63
40. A26G C62A C89U  -4.69
41. G25A U106A  -4.81
42. A26U U126G  -4.96
43. A27C G57C C85A G135U  -4.97
44. A27C C40G  -4.98
45. A26C G63A C82G A90G U112A  -5.15
46. A27C A90U  -5.3
47. A26U G47C G77A U78A  -5.33
48. A26U C49U U54C G93C  -5.34
49. A27C C82U U96G U125A U129G  -5.35
50. A27C A111U A118U G120A  -5.36
51. A26C A46G G69U A74U  -5.53
52. A26G U33G G61A A84C C98U  -5.59
53. G25A C70U  -5.76
54. A24U C79U C114U G128A U131A  -5.77
55. A26C C28G G52U C88U G120A  -5.8
56. G25A A41U  -5.8
57. A26G C70G G113A  -5.88
58. A26C C53U C86U U112A  -5.9
59. A26U C53A G61C U78A G110A  -5.96
60. A26U U96A C97A C124U  -5.98
61. A26U C34U U59C C85A G113A G127U  -6.04
62. A26U C40A G60C  -6.14
63. A26U C53U U116G  -6.15
64. A26U C34A C40U G110U  -6.16
65. A26U C53U A95U G113A  -6.17
66. A24U C53U  -6.23
67. G25C C28A G48U G71U C73G G113U  -6.43
68. G25A C80A U92A U112A  -6.66
69. A26G C56G C97U C99A A111G  -6.74
70. G25C G71A C73A C89A G110A  -6.79
71. G25A C72U C124A  -6.83
72. G25U A29G G45A C80U G110U  -6.86
73. A24U G36U U87C A90G G120U C124A U130G  -6.87
74. A26C G36A G69U G110A  -6.98
75. A24U A41C G42U C62G A83G C94G C123A G127A  -6.99
76. G25C C89A  -7.16
77. G25U C94U C101U G113A C124A  -7.17
78. A24U C72G A95C G110U  -7.4
79. A26U U38G A43U C73G C76U A111G  -7.42
80. A27C G42U C104A C114A G128A  -7.58
81. A27C G35U C64U C80U U109A  -7.59
82. G25C C70U C73G A121G U133G  -7.65
83. A26U C34A G63C U112G G128C  -7.83
